We go through 14 molecules from article PMC11615384, “Frequent transitions in self-assembly across the evolution of a central metabolic enzyme” (Nature Communications, 2024).

As a reminder, the stoichiometry N is the number of molecules, sites or subunits per partner or assembly. As a reminder, the Km is the concentration of substrate that gives half-maximal velocity. By kcat is commonly meant the maximal rate divided by the concentration of active sites.

Residue numbers refer to the chain shown, from its start. In names and notes the source's numbering stands. Several values for one entry are separate records, joined by “and”; a condition that tells them apart may be missing. Equal values may be shown once.

Series [1] concerns the target citrate synthase (type III CS) from M. sulfidovorans (M. sulfidovorans). Kind of series: mass photometry; self-assembly of the purified protein in solution; final concentration 12.5 to 50 nM; PBS or 20 mM Tris, 200 mM NaCl pH 7.5; OneMP or TwoMP.
Series [2] concerns the target non-mitochondrial citrate synthase (nmCS) of Ananas comosus (Ananas comosus). Described as above.
The target is the same in series [3]. As to the kind of experiment: mass photometry; with high quantities of acetyl-CoA: prediluted protein (2 µM) incubated for 10 min with the substrate, same concentration in the buffer of the gasket.
For series [4], the target named is citrate synthase from M. sulfidovorans W150A (M. sulfidovorans). As to the kind of experiment: mass photometry; self-assembly of the purified protein in solution; final concentration 12.5 to 50 nM; PBS or 20 mM Tris, 200 mM NaCl pH 7.5; OneMP or TwoMP.
Series [5] addresses T1, CS from A. comosus (nmCS) (Ananas comosus, UniProt A0A6P5F0R3).
T1 construct: gene LOC109710921; non-mitochondrial CS with C-terminal LE-HHHHHH tag, expressed in E. coli BL21(DE3); octamer (ring of four dimers); C-terminus extends to residue 513
As to the kind of experiment: mass photometry, oligomeric state shift. The series is classed as binding. To be noted: 10 min preincubation with high acetyl-CoA; octamers shift to mix of hexamers and octamers.

Series [6] deals with non-mitochondrial citrate synthase (nmCS) of C. fasciculata (C. fasciculata). Kind of series: mass photometry; self-assembly of the purified protein in solution; final concentration 12.5 to 50 nM; PBS or 20 mM Tris, 200 mM NaCl pH 7.5; OneMP or TwoMP.
The target in series [7] is type II citrate synthase of F. taffensis (F. taffensis). The description is as above.
The target of series [8] is non-mitochondrial citrate synthase (nmCS) of Chlamydomonas reinhardtii (Chlamydomonas reinhardtii). The series is described as above.
Series [9] concerns the target type II citrate synthase of C. woesi (C. woesi). The description is as above.
The target of series [10] is CS from a Myxococcota species (a Myxococcota species). Described as above.
Series [11] deals with the molecule itself. The description is as above.
Substrate in series [12]: O=C(O)CC(=O)C(=O)O
Kind of series: purified protein. The series is classed as biochemical, Methylophaga sulfidovorans. To be noted: 50 mM Tris pH 7.5, 10 mM KCl, 25 °C, 25 nM enzyme, varied substrate not named in main text.

Substrate in series [13]: O=C(O)CC(=O)C(=O)O
Kind of series: purified protein. In kind it is biochemical, Deinococcus pimensis. To be noted: 50 mM Tris pH 7.5, 10 mM KCl, 25 °C, 25 nM enzyme, unseparated sample, varied substrate not named in main text.

T1 sequence (A0A6P5F0R3 entry or part of it): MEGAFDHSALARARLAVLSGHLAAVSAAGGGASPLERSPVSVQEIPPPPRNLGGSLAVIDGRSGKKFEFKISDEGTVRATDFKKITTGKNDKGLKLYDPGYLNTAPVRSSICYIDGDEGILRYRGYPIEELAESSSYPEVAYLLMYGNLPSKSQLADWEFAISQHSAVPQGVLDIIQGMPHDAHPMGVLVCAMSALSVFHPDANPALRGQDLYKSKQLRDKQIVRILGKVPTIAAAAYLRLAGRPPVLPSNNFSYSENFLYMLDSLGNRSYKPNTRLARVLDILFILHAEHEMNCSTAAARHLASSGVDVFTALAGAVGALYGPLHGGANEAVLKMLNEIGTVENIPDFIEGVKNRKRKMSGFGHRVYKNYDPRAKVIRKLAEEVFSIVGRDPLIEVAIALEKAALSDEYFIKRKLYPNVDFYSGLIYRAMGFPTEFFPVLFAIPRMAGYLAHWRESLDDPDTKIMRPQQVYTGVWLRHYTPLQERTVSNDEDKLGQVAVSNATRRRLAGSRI

Consider “citrate synthase (type III CS) from M. sulfidovorans (enzyme)”, for which, in series [1], the stoichiometry N is 6.
Take “non-mitochondrial citrate synthase (nmCS) of Ananas comosus (enzyme)”: the stoichiometry N in series [2] is 8; in series [3], 6 and 8.
“citrate synthase from M. sulfidovorans W150A (enzyme)” showed a stoichiometry N in series [4] of 2.
`CC(=O)SCCNC(=O)CCNC(=O)[C@H](O)C(C)(C)COP(=O)(O)OP(=O)(O)OC[C@H]1O[C@@H](n2cnc3c(N)ncnc32)[C@H](O)[C@@H]1OP(=O)(O)O` [acetyl-CoA]: in [5], the “mass photometry, oligomeric state shift” value is listed as “shift the oligomeric state of the CS from A. comosus from octamers”.
“non-mitochondrial citrate synthase (nmCS) of C. fasciculata (enzyme)”: the stoichiometry N in series [6] amounted to 6.
With “type II citrate synthase of F. taffensis (enzyme)”, the stoichiometry N in series [7] was determined as 2.
The molecule “non-mitochondrial citrate synthase (nmCS) of Chlamydomonas reinhardtii (enzyme)” had a stoichiometry N in series [8] of 2.
“type II citrate synthase of C. woesi (enzyme)” yielded a stoichiometry N in series [9] of 2.
CS from a Myxococcota species (enzyme): the stoichiometry N in series [10] was found to be 2.

B1: non-mitochondrial citrate synthase (nmCS) of P. olsenii (enzyme)
chain: MDRLNTVAAHVAPTLTITDNRSGKKIDVKVKDGTIRATDLKQLGIQTYDPGYMNTTCCVSRISFIDGNRGVLRYRGYPIEQLAQDSSFTEVAFLLQYGELPTRGQLTQWEQDLMRHSMLHQDVATLTSAFRYDAHPMGMFVSAMAALGTLHPETNPALTSQNIYKDKAVRNKEIARILGSATTLAAMAYRHRMGRPFNTPNSDLGYTENFLYMLDVSHEGTSYRPHPKLVKALDVLFVLHAEHELNCSTSAMRHLTSSNVDVYTACAAAAGALYGPRHGGANEAVLRMLERIGSIENVPTFVDKVKQRKELLMGFGHRVYKHYDPRATIVRKIAEDVFEICGREPLIEVAMDLERIALSDPYFKDRKLYPNVDFYSGLIYKAMGFPTDMFPILFTVPRLAGWLAHWSEWIDDPENRIYRPFQVYKGYDKRDYVQVDERSEKVHSKELTVKRSAFNRRRDASLQSAAADRSEYEWIKD
For B1, in series [11], the “stoichiometry N” value worked out at 6.

B2: A. comosus CS Δ487-513, variant in which the extended C-terminus was deleted (domain or fragment)
chain: MEGAFDHSALARARLAVLSGHLAAVSAAGGGASPLERSPVSVQEIPPPPRNLGGSLAVIDGRSGKKFEFKISDEGTVRATDFKKITTGKNDKGLKLYDPGYLNTAPVRSSICYIDGDEGILRYRGYPIEELAESSSYPEVAYLLMYGNLPSKSQLADWEFAISQHSAVPQGVLDIIQGMPHDAHPMGVLVCAMSALSVFHPDANPALRGQDLYKSKQLRDKQIVRILGKVPTIAAAAYLRLAGRPPVLPSNNFSYSENFLYMLDSLGNRSYKPNTRLARVLDILFILHAEHEMNCSTAAARHLASSGVDVFTALAGAVGALYGPLHGGANEAVLKMLNEIGTVENIPDFIEGVKNRKRKMSGFGHRVYKNYDPRAKVIRKLAEEVFSIVGRDPLIEVAIALEKAALSDEYFIKRKLYPNVDFYSGLIYRAMGFPTEFFPVLFAIPRMAGYLAHWRESLDDPDTKIMRPQQVYTGVWLRHYTPLQERLEHHHHHH
Turning to B2, the “stoichiometry N” value in [11] is 2.

B3: CS from M. sulfidovorans (type III) (Methylophaga sulfidovorans) (protein)
chain: MSDFLPGLEGVPATKSAISFIDGEKGILSYRGYPLETLAENSTFEETTLLLLDGELPTKKALNDFSQQLKDNYRIKYHIRQMMRHFPHTGHPMDMLQTAVSSLGMFYPGTECLTDANSCEDLDYVRNMTVNIIAQMAPLVAMWEHIRNGWDPVNPKHDLSVAENLLYMFNGEEPDPLMAKIMDVCLILHAEHTLNASTFAALVAGSTLATPYSVISAAIGTLSGPLHGGANQRVVGMLQEIGSPKNVESWVDEKLKNKEVIWGMGHREYKVKDPRATILHKLVEQLVAERGGHLDDMFDTALKLEEVCADRLGHKGVYPNVDFYSGILYSEMGIPEDEFTALFAVARSAGWLAHWREQISDNRIYRPTQIYVGSDMRDYTPIEER
notes: full-length with C-terminal LE-HHHHHH tag, expressed in E. coli BL21(DE3); type III CS, hexamer (three dimers)
Regarding B3, in the series “purified protein [12]”, the Km was 50.5 ± 5.2 µM and the kcat was 33.3 ± 1.8 s⁻¹.

B4: CS from M. sulfidovorans (type III) (Methylophaga sulfidovorans; W150A) (protein)
chain: B3 chain with W150A
notes: as for B3
As to B4, in “purified protein [12]” (dimeric variant), the Km came out at 36.7 ± 5.7 µM and the kcat stood at 26.7 ± 1.1 s⁻¹.

B5: CS from D. pimensis (Dp) (Deinococcus pimensis) (protein)
chain: MTTTIAKGLEGVLFTETKLTFINGTEGVLTHLGIPIQEWAEKSTFEELSFALLHGKLPTREELAAFDADLKANRAVPAELITAIRAYPRDVHPMQALRTAASHLGLLDADAEDTSAEGRYRIGVRMIAQFSTIIAAIARAQDGQDPVEPRADLTHAGNFLYMLNGQEPSAEQARLFDIALILHADHGMNASTFTAIATASTLSDMYSSVVSAIGALKGPLHGGANEAVMDMLDEIGTVDAAVPFITQKLDNKEKIMGVGHRVYKYFDPRSRVLRDYAAHVSEKQGKSHYYSILETIEKEIVERLGGKGIYPNVDFYSGVVYSDLGIKKSFFTPIFALARISGWVASVTEYTANNRLLRPDAVYVGARDQHYVEIDERK
notes: full-length with C-terminal LE-HHHHHH tag, expressed in E. coli BL21(DE3); type I CS, polydisperse oligomer (dimers to >=8 subunits)
For the molecule B5, in “purified protein [13]”, the Km was determined as 25.4 ± 3.1 µM and the kcat stood at 36.6 ± 1.1 s⁻¹.
